Laboratory results from the supplement of paper PMC9732359.
± gives the uncertainty stated by the source.

Assay: protein stability index of a GFP-peptide fusion (yeast GPS) (PSI 1-4); higher = more stable; sorted into four equal gates, so the index is relative within each strain
How it was run: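 Each library plasmid carries Cherry plus GFP with a tiled 17-residue yeast protein peptide fused downstream, and the pooled library was carried in yeast. Mid-log cultures in leucine-free medium were sorted into four equal gates by GFP/Cherry ratio. Reads from Illumina sequencing of PCR-amplified plasmids from each gate were assigned to strains by barcodes. Per peptide, the protein stability index was computed as the summed products of gate read frequency and gate number.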

| Sequence | protein stability index (doa10∆) | protein stability index (pdr5∆) | protein stability index (san1∆) | protein stability index (ubr1∆) |
| --- | --- | --- | --- | --- |
| SHNENKMDFSSKEGQYK [YIL149C/MLP2] | 3.27 ± 0.077 | 3.29 ± 0.07 | 3.25 ± 0.065 | 3.28 ± 0.064 |
| DLSLLGYCDDIAAMVAQ [SIR2] | 2.56 ± 0.06 | 2.08 ± 0.043 | 2.82 ± 0.052 | 2.24 ± 0.041 |
| NEESTNERLEINQEKPV [SIR4] | 3.31 ± 0.18 | 3.32 ± 0.13 | 3.37 ± 0.092 | 3.36 ± 0.1 |
| ITPMNDDQCMLITTYSK [SIN4] | 1.93 ± 0.064 | 2.41 ± 0.075 | 1.98 ± 0.22 | 1.99 ± 0.038 |
| DDTKNQDSMSKGTGEES [YGR119C/NUP57] | 3.16 ± 0.077 | 3.14 ± 0.16 | 3.21 ± 0.082 | 3.42 ± 0.057 |
| RFNAKVSMVKRAIDSLI [CDC53] | 1.86 ± 0.071 | 2.12 ± 0.074 | 2.17 ± 0.12 | 2 ± 0.042 |
| EVRDATLNNIFRFDSIQ [GRR1] | 3.18 ± 0.26 | – | 3.38 ± 0.2 | 3.24 ± 0.24 |
| NDILDELLCGMANKEWR [ECM29] | 2.37 ± 0.14 | 1.47 ± 0.098 | 2.72 ± 0.15 | 1.6 ± 0.061 |
| HTQDIIGGMRVDENGDP [RET1] | 3.2 ± 0.084 | 3.32 ± 0.073 | 3.17 ± 0.055 | 3.37 ± 0.054 |
| IFCVGSGQTFAYGVLDS [PRE2] | 2.49 ± 0.095 | 2.04 ± 0.11 | 2.249 ± 0.019 | 2.33 ± 0.073 |
| ELKNELAKTKENYDAKI [YIL149C/MLP2] | 3.22 ± 0.073 | 3.43 ± 0.071 | 3.15 ± 0.052 | 3.08 ± 0.076 |
| KQEIREAVELPLVQADL [RPT3] | 3.2 ± 0.13 | 2.81 ± 0.22 | 3.43 ± 0.12 | 2.96 ± 0.17 |
| TLYSVKSKEDMKQLKFF [SNU114] | 3.28 ± 0.17 | 3.33 ± 0.13 | 3.17 ± 0.083 | 3.1 ± 0.087 |
| NSANGSSLNGTNAKIPQ [SSN3] | 2.38 ± 0.071 | 2.72 ± 0.071 | 2.53 ± 0.076 | 2.56 ± 0.057 |
| KVKAGVRSANEDGTFSV [RRP43] | 3.2 ± 0.097 | 3.24 ± 0.11 | 3.48 ± 0.061 | 3.43 ± 0.077 |
| MGPLSNIAQMIPGMSNM [SRP54] | 2.49 ± 0.049 | 2.75 ± 0.045 | 2.58 ± 0.048 | 2.69 ± 0.04 |
| EEKSNEVKTPKIPLFTF [SIR4] | 2.82 ± 0.061 | 2.94 ± 0.065 | 2.57 ± 0.048 | 2.79 ± 0.047 |
| VLEQLSGQTPVQSKARY [RPL11A] | 3.2 ± 0.24 | 2.98 ± 0.17 | 2.91 ± 0.077 | 3.15 ± 0.088 |
| QGLAMVEKYAPDVVRSL [RRP42] | 2.25 ± 0.15 | 2.47 ± 0.16 | 2.3 ± 0.15 | 2.72 ± 0.13 |
| KDLVEIKKEEGKIDEAA [RPN5] | – | – | – | 3.62 ± 0.22 |
| DTTVNDCLDKLLNDECT [SNF2] | 3.43 ± 0.16 | 3.46 ± 0.1 | 3.59 ± 0.075 | 3.73 ± 0.094 |
| GGLGLNLQTADTVIIFD [SNF2] | 3.18 ± 0.12 | 3.22 ± 0.1 | 3.34 ± 0.13 | 3.38 ± 0.07 |
| RFRGKRVVYLKHLEDNT [RPL6A] | 2.21 ± 0.068 | 2.37 ± 0.053 | 2.15 ± 0.1 | 2.31 ± 0.049 |
| TANALPLPAVFSAPIRP [RPL4A] | 1.79 ± 0.042 | 2.1 ± 0.042 | 1.87 ± 0.065 | 1.98 ± 0.04 |
| RAVLTPLITRHCYPRQL [RRP46] | 2.4 ± 0.048 | 2.18 ± 0.037 | 2.36 ± 0.052 | 2.39 ± 0.033 |
| NMLICAPTGSGKTNIAL [BRR2] | 2.55 ± 0.079 | 3.12 ± 0.08 | 2.12 ± 0.091 | 2.98 ± 0.053 |
